In patent US20260242478A1 (published 2026):
Where no end group is shown, it is not given here.

Experiments:
[1] = target: T1, Anti-CD28 Fab (SEQ ID NOs: 696, 697); test: phage ELISA; biotinylated anti-CD28 Fab on neutravidin plate, clonal phage supernatant, anti-M13 HRP detection;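 also: crude supernatants of single phage clones picked after panning were screened for binding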
T1 construct: In the phage ELISA the Fab was biotinylated and captured on neutravidin coated plates
T1 sequence (VH, as listed by the source, chain 1 of 2): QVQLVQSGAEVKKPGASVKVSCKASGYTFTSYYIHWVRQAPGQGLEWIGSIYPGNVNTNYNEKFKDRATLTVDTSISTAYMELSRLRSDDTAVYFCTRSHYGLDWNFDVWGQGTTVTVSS
T1 sequence (VL, as listed by the source, chain 2 of 2): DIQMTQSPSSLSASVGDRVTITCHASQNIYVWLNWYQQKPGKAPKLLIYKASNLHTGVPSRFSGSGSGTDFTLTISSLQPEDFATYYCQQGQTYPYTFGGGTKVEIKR

[2] = target: T1, Anti-CD28 Fab (SEQ ID NOs: 696, 697); test: phage ELISA; Fab-coated wells pre-incubated with CD28 antigen as competitor, clonal phage supernatant, anti-M13 HRP detection
Method: (§1) After panning, phage infected bacteria were plated out and colonies picked into 96 well blocks. Clonal phage was then amplified and separated from bacterial cells via centrifugation.
(§2) Clonal phage were harvested as crude supematants and screened via standard ELISAs. […] Prior to the addition of clonal phage, wells were incubated with blocking buffer and CD28 antigen or blocking buffer alone. Without washing or aspirating, clonal phage supematants were then added to the wells and incubated for a short time. Wells were then washed followed by detection of bound phage using a horse radish conjugated anti-M13 antibody. Clonal phage of interest were then sent for sequence analysis.

[3] = target: Anti-CD28 Fab (SEQ ID NOs: 696, 697); test: phage binding ELISA; biotinylated Fab on neutravidin plate, clonal phage supernatant, anti-M13 HRP;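 also: clones picked after panning, added to wells pre-incubated with CD28 antigen or with blocking buffer only, no wash before phage addition, bound phage read after washing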
Target sequence in this assay (VH, as listed by the source, chain 1 of 2): as the sequence (VH, as listed by the source, chain 1 of 2) above
Target sequence in this assay (VL, as listed by the source, chain 2 of 2): as the sequence (VL, as listed by the source, chain 2 of 2) above
Method: as §1, §2

[4] = target: Anti-CD28 Fab (SEQ ID NOs: 696, 697); test: phage binding ELISA; captured Fab pre-incubated with CD28 antigen as competitor, anti-M13 HRP
Target sequence in this assay (VH, as listed by the source, chain 1 of 2): as the sequence (VH, as listed by the source, chain 1 of 2) above
Target sequence in this assay (VL, as listed by the source, chain 2 of 2): as the sequence (VL, as listed by the source, chain 2 of 2) above
Method: as §1, §2

[5] = target: Anti-CD28 Fab (SEQ ID NOs: 696, 697); test: phage ELISA; Fab on plate pre-incubated with CD28 antigen (competitor), clonal phage supernatant, anti-M13 HRP detection
Target sequence in this assay (VH, as listed by the source, chain 1 of 2): as the sequence (VH, as listed by the source, chain 1 of 2) above
Target sequence in this assay (VL, as listed by the source, chain 2 of 2): as the sequence (VL, as listed by the source, chain 2 of 2) above
Method: as §1, §2

[6] = target: Anti-CD28 Fab (SEQ ID NOs: 696, 697); test: phage ELISA; biotinylated anti-CD28 Fab on neutravidin plate, clonal phage supernatant, anti-M13 HRP detection;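 also: crude supernatants of single phage clones picked after panning were screened for binding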
Target sequence in this assay (VH, as listed by the source, chain 1 of 2): as the sequence (VH, as listed by the source, chain 1 of 2) above
Target sequence in this assay (VL, as listed by the source, chain 2 of 2): as the sequence (VL, as listed by the source, chain 2 of 2) above

[7] = target: Anti-CD28 Fab (SEQ ID NOs: 696, 697); test: as above; remark: listed apart in the source
Target sequence in this assay (VH, as listed by the source, chain 1 of 2): as the sequence (VH, as listed by the source, chain 1 of 2) above
Target sequence in this assay (VL, as listed by the source, chain 2 of 2): as the sequence (VL, as listed by the source, chain 2 of 2) above

[8] = target: Anti-CD28 Fab (SEQ ID NOs: 696, 697); test: phage ELISA as above; wells pre-incubated with CD28 antigen as competitor
Method: as §1, §2

[9] = target: T2, Anti-CD28 Fab (SEQ ID NOs: 696, 697); test: phage ELISA; biotinylated anti-CD28 Fab on neutravidin plate, clonal phage supernatant, anti-M13 HRP
T2 construct: Biotinylated and captured on neutravidin coated plates in the phage ELISA
Method: as §1, §2

[10] = target: T2, Anti-CD28 Fab (SEQ ID NOs: 696, 697); test: phage ELISA; Fab-coated wells first incubated with CD28 antigen (competitor), then clonal phage, anti-M13 HRP
Method: as §1, §2

B1: Phage-1299 (peptide)
peptide: YCEGHSRQYMEKCM
Phage binding ELISA, Anti-CD28 Fab signal [1]: 0.63 | Phage binding ELISA, Anti-CD28 Fab signal in the presence of CD28 [2]: 0.33

B2: Phage-1253 (peptide)
peptide: YCDGHSTLYMQKCL
notes: Tested as clonal phage supernatant
Anti-CD28 Fab (SEQ ID NOs: 696, 697) signal [3]: 0.88 | Anti-CD28 Fab signal in the presence of CD28 [4]: 0.06

B3: Phage-1295 (peptide)
peptide: YCMGHSAEYMGKCL
Phage binding ELISA, Anti-CD28 Fab signal [1]: 0.64 | Phage binding ELISA, Anti-CD28 Fab signal in the presence of CD28 [2]: 0.06

B4: Phage-1266 (peptide)
peptide: YCDGHSGEYMSKCL
notes: also called Peptide-87 library clone
Phage binding ELISA, Anti-CD28 Fab signal in the presence of CD28 [5]: 0.06 | Phage binding ELISA, Anti-CD28 Fab signal [6]: 0.82

B5: Phage-1249 (peptide)
peptide: YCEGHSQEYKAKCF
notes: as for B2
Anti-CD28 Fab (SEQ ID NOs: 696, 697) signal [3]: 0.9 | Anti-CD28 Fab signal in the presence of CD28 [4]: 0.07

B6: Phage-1297 (peptide)
peptide: YCDGHAAWYLQKCL
Phage binding ELISA, Anti-CD28 Fab signal [1]: 0.64 | Phage binding ELISA, Anti-CD28 Fab signal in the presence of CD28 [2]: 0.07

B7: Phage-1263 (peptide)
peptide: YCDGHKWEYLQKCL
notes: as for B4
Phage binding ELISA, Anti-CD28 Fab signal in the presence of CD28 [5]: 0.06 | Phage binding ELISA, Anti-CD28 Fab signal [6]: 0.84

B8: Phage-1260 (peptide)
peptide: YCAGHSLQYLGKCY
notes: as for B4
Phage binding ELISA, Anti-CD28 Fab signal in the presence of CD28 [5]: 0.06 | Phage binding ELISA, Anti-CD28 Fab signal [6]: 0.86

B9: Phage-1261 (peptide)
peptide: YCAGHAAIYMAKCL
notes: as for B4
Phage binding ELISA, Anti-CD28 Fab signal in the presence of CD28 [5]: 0.07 | Phage binding ELISA, Anti-CD28 Fab signal [6]: 0.85

B10: Phage-1296 (peptide)
peptide: YCDGHAWWYMEKCL
Phage binding ELISA, Anti-CD28 Fab signal [1]: 0.64 | Phage binding ELISA, Anti-CD28 Fab signal in the presence of CD28 [2]: 0.06

B11: Phage-1292 (peptide)
peptide: YCDGHYGAYILKCL
Phage binding ELISA, Anti-CD28 Fab signal [1]: 0.67 | Phage binding ELISA, Anti-CD28 Fab signal in the presence of CD28 [2]: 0.06

B12: Phage-1270 (peptide)
peptide: YCAGHSAEYIQKCL
notes: as for B4
Phage binding ELISA, Anti-CD28 Fab signal in the presence of CD28 [5]: 0.08 | Phage binding ELISA, Anti-CD28 Fab signal [6]: 0.8

B13: Phage-1271 (peptide)
peptide: YCAGHTQEYMLKCL
notes: as for B4
Phage binding ELISA, Anti-CD28 Fab signal in the presence of CD28 [5]: 0.06 | Phage binding ELISA, Anti-CD28 Fab signal [6]: 0.78

B14: Phage-1265 (peptide)
peptide: YCEGHLPMYMQKCM
notes: as for B4
Phage binding ELISA, Anti-CD28 Fab signal in the presence of CD28 [5]: 0.07 | Phage binding ELISA, Anti-CD28 Fab signal [6]: 0.82

B15: Phage-1247 (peptide)
peptide: YCDGHLLMYMEKCL
notes: as for B2
Anti-CD28 Fab (SEQ ID NOs: 696, 697) signal [3]: 0.91 | Anti-CD28 Fab signal in the presence of CD28 [4]: 0.06

B16: Phage-1301 (peptide, not shown: large carriers)
peptide: YCEGHLAVHMSKCL
modifications: cysteine pairing not given here; also: fused to phage pIII protein, pIII and linker sequence not given here
notes: as for B2
Anti-CD28 Fab signal (phage binding ELISA) [7]: 0.62 | Anti-CD28 Fab signal in the presence of CD28 (phage binding ELISA) [8]: 0.06

B17: Phage-1251 (peptide)
peptide: YCEGHSSAYMAKCL
notes: as for B2
Anti-CD28 Fab (SEQ ID NOs: 696, 697) signal [3]: 0.9 | Anti-CD28 Fab signal in the presence of CD28 [4]: 0.07

B18: Phage-1259 (peptide)
peptide: YCDGHTAQYMWKCL
notes: as for B2
Anti-CD28 Fab (SEQ ID NOs: 696, 697) signal [3]: 0.87 | Anti-CD28 Fab signal in the presence of CD28 [4]: 0.07

B19: Phage-1294 (peptide)
peptide: YCDGHMDAYMSKCL
Phage binding ELISA, Anti-CD28 Fab signal [1]: 0.65 | Phage binding ELISA, Anti-CD28 Fab signal in the presence of CD28 [2]: 0.06

B20: Phage-1264 (peptide)
peptide: YCDGHDPQYIRKCI
notes: as for B4
Phage binding ELISA, Anti-CD28 Fab signal in the presence of CD28 [5]: 0.06 | Phage binding ELISA, Anti-CD28 Fab signal [6]: 0.83

B21: Phage-1290 (peptide)
peptide: YCDGHEPQYMTKCL
Phage binding ELISA, Anti-CD28 Fab signal [1]: 0.68 | Phage binding ELISA, Anti-CD28 Fab signal in the presence of CD28 [2]: 0.1

B22: Phage-1293 (peptide)
peptide: YCEGHAAVYMHKCL
Phage binding ELISA, Anti-CD28 Fab signal [1]: 0.67 | Phage binding ELISA, Anti-CD28 Fab signal in the presence of CD28 [2]: 0.09

B23: Phage-1256 (peptide)
peptide: YCDGHFTWYMAKCL
notes: as for B2
Anti-CD28 Fab (SEQ ID NOs: 696, 697) signal [3]: 0.87 | Anti-CD28 Fab signal in the presence of CD28 [4]: 0.08

B24: Phage-1252 (peptide)
peptide: YCEGHLAAYMYKCL
notes: as for B2
Anti-CD28 Fab (SEQ ID NOs: 696, 697) signal [3]: 0.89 | Anti-CD28 Fab signal in the presence of CD28 [4]: 0.07

B25: Phage-1257 (peptide)
peptide: YCDGHIAEYRSKCL
notes: as for B2
Anti-CD28 Fab (SEQ ID NOs: 696, 697) signal [3]: 0.87 | Anti-CD28 Fab signal in the presence of CD28 [4]: 0.07

B26: Phage-1246 (peptide)
peptide: YCDGHIKEYMSKCL
Anti-CD28 Fab signal (phage binding ELISA) [9]: 0.91 | Anti-CD28 Fab signal in the presence of CD28 (phage binding ELISA) [10]: 0.08

B27: Phage-1298 (peptide)
peptide: YCEGHAQMYMLKCL
Phage binding ELISA, Anti-CD28 Fab signal [1]: 0.64 | Phage binding ELISA, Anti-CD28 Fab signal in the presence of CD28 [2]: 0.06

B28: Phage-1300 (peptide, not shown: large carriers)
peptide: YCSGHLPMYMAKCL
modifications: cysteine pairing not given here; also: fused to phage pIII protein, pIII and linker sequence not given here
notes: as for B2
Anti-CD28 Fab signal (phage binding ELISA) [7]: 0.62 | Anti-CD28 Fab signal in the presence of CD28 (phage binding ELISA) [8]: 0.13

B29: Phage-1288 (peptide)
peptide: YCEGHMSEYMRKCL
Phage binding ELISA, Anti-CD28 Fab signal [1]: 0.69 | Phage binding ELISA, Anti-CD28 Fab signal in the presence of CD28 [2]: 0.1

B30: Phage-1289 (peptide)
peptide: YCVGHLPLYMPNCL
Phage binding ELISA, Anti-CD28 Fab signal [1]: 0.68 | Phage binding ELISA, Anti-CD28 Fab signal in the presence of CD28 [2]: 0.11

B31: Phage-1248 (peptide)
peptide: YCEGHDWMYMEKCL
notes: as for B2
Anti-CD28 Fab (SEQ ID NOs: 696, 697) signal [3]: 0.91 | Anti-CD28 Fab signal in the presence of CD28 [4]: 0.07

B32: Phage-1291 (peptide)
peptide: YCEGHLPQYLAKCY
Phage binding ELISA, Anti-CD28 Fab signal [1]: 0.67 | Phage binding ELISA, Anti-CD28 Fab signal in the presence of CD28 [2]: 0.08

B33: Phage-1250 (peptide)
peptide: YCDGHVLMYLAKCL
notes: as for B2
Anti-CD28 Fab (SEQ ID NOs: 696, 697) signal [3]: 0.9 | Anti-CD28 Fab signal in the presence of CD28 [4]: 0.09

B34: Phage-1255 (peptide)
peptide: YCEGHISEYMGKCL
notes: as for B2
Anti-CD28 Fab (SEQ ID NOs: 696, 697) signal [3]: 0.88 | Anti-CD28 Fab signal in the presence of CD28 [4]: 0.05

B35: Phage-1268 (peptide)
peptide: YCDGHSMEYMAKCL
notes: as for B4
Phage binding ELISA, Anti-CD28 Fab signal in the presence of CD28 [5]: 0.07 | Phage binding ELISA, Anti-CD28 Fab signal [6]: 0.8

B36: Phage-1244 (peptide)
peptide: YCDGHELMYMEKCL
Anti-CD28 Fab signal (phage binding ELISA) [9]: 0.92 | Anti-CD28 Fab signal in the presence of CD28 (phage binding ELISA) [10]: 0.06

B37: Phage-1269 (peptide)
peptide: YCDGHSPQYLWKCL
notes: as for B4
Phage binding ELISA, Anti-CD28 Fab signal in the presence of CD28 [5]: 0.05 | Phage binding ELISA, Anti-CD28 Fab signal [6]: 0.8

B38: Phage-1272 (peptide)
peptide: YCQGHSVQYMAKCL
notes: as for B4
Phage binding ELISA, Anti-CD28 Fab signal in the presence of CD28 [5]: 0.06 | Phage binding ELISA, Anti-CD28 Fab signal [6]: 0.77

B39: Phage-1245 (peptide)
peptide: YCAGHLEMYMSKCL
Anti-CD28 Fab signal (phage binding ELISA) [9]: 0.91 | Anti-CD28 Fab signal in the presence of CD28 (phage binding ELISA) [10]: 0.07

B40: Phage-1287 (peptide)
peptide: YCQGHAPWYMVKCL
Phage binding ELISA, Anti-CD28 Fab signal [1]: 0.69 | Phage binding ELISA, Anti-CD28 Fab signal in the presence of CD28 [2]: 0.08

B41: Phage-1258 (peptide)
peptide: YCEGHLSEYIGKCL
notes: as for B2
Anti-CD28 Fab (SEQ ID NOs: 696, 697) signal [3]: 0.87 | Anti-CD28 Fab signal in the presence of CD28 [4]: 0.06

B42: Phage-1267 (peptide)
peptide: YCEGHAREYMDKCL
notes: as for B4
Phage binding ELISA, Anti-CD28 Fab signal in the presence of CD28 [5]: 0.07 | Phage binding ELISA, Anti-CD28 Fab signal [6]: 0.8

B43: Phage-1254 (peptide)
peptide: YCDGHTEAYMSKCL
notes: as for B2
Anti-CD28 Fab (SEQ ID NOs: 696, 697) signal [3]: 0.88 | Anti-CD28 Fab signal in the presence of CD28 [4]: 0.06

B44: Phage-1262 (peptide)
peptide: YCDGHSMTYMAKCI
notes: as for B4
Phage binding ELISA, Anti-CD28 Fab signal in the presence of CD28 [5]: 0.06 | Phage binding ELISA, Anti-CD28 Fab signal [6]: 0.84
